In IntAct's records for PubMed 10521435:

B1: Chaperone protein DnaJ (Escherichia coli (strain K12)), P08622 (parent)
chain: MAKQDYYEILGVSKTAEEREIRKAYKRLAMKYHPDRNQGDKEAEAKFKEIKEAYEVLTDSQKRAAYDQYGHAAFEQGGMGGGGFGGGADFSDIFGDVFGDIFGGGRGRQRAARGADLRYNMELTLEEAVRGVTKEIRIPTLEECDVCHGSGAKPGTQPQTCPTCHGSGQVQMRQGFFAVQQTCPHCQGRGTLIKDPCNKCHGHGRVERSKTLSVKIPAGVDTGDRIRLAGEGEAGEHGAPAGDLYVQVQVKQHPIFEREGNNLYCEVPINFAMAALGGEIEVPTLDGRVKLKVPGETQTGKLFRMRGKGVKSVRGGAQGDLLCRVVVETPVGLNERQKQLLQELQESFGGPTGEHNSPRSKSFFDGVKKFFDDLTR

Variants of: B1
Details: with dnak_ecoli dnaK

Effect of a mutation on the interaction, decreasing interaction:
MAKQDYYEILGVSKTAEEREIRKAYKRLAMKYHPDRNQGDKEAEAKFKEIKEAYEVLTDSQARAAYDQYGHAAFEQGGMGGGGFGGGADFSDIFGDVFGDIFGGGRGRQRAARGADLRYNMELTLEEAVRGVTKEIRIPTLEECDVCHGSGAKPGTQPQTCPTCHGSGQVQMRQGFFAVQQTCPHCQGRGTLIKDPCNKCHGHGRVERSKTLSVKIPAGVDTGDRIRLAGEGEAGEHGAPAGDLYVQVQVKQHPIFEREGNNLYCEVPINFAMAALGGEIEVPTLDGRVKLKVPGETQTGKLFRMRGKGVKSVRGGAQGDLLCRVVVETPVGLNERQKQLLQELQESFGGPTGEHNSPRSKSFFDGVKKFFDDLTR [K62A]
MAKQDYYEILGVSKTAEEREIRKAYKRLAMKYHPDRNQGDKEAEAKFKEIKEAYEVLTDSQAAAAYDQYGHAAFEQGGMGGGGFGGGADFSDIFGDVFGDIFGGGRGRQRAARGADLRYNMELTLEEAVRGVTKEIRIPTLEECDVCHGSGAKPGTQPQTCPTCHGSGQVQMRQGFFAVQQTCPHCQGRGTLIKDPCNKCHGHGRVERSKTLSVKIPAGVDTGDRIRLAGEGEAGEHGAPAGDLYVQVQVKQHPIFEREGNNLYCEVPINFAMAALGGEIEVPTLDGRVKLKVPGETQTGKLFRMRGKGVKSVRGGAQGDLLCRVVVETPVGLNERQKQLLQELQESFGGPTGEHNSPRSKSFFDGVKKFFDDLTR [K62A;R63A]
MAKQDYYEILGVSKTAEEREIRKAYKRLAMKYHPDRNQGDKEAEAKFKEIKEAYEVLTDSQKAAAYDQYGHAAFEQGGMGGGGFGGGADFSDIFGDVFGDIFGGGRGRQRAARGADLRYNMELTLEEAVRGVTKEIRIPTLEECDVCHGSGAKPGTQPQTCPTCHGSGQVQMRQGFFAVQQTCPHCQGRGTLIKDPCNKCHGHGRVERSKTLSVKIPAGVDTGDRIRLAGEGEAGEHGAPAGDLYVQVQVKQHPIFEREGNNLYCEVPINFAMAALGGEIEVPTLDGRVKLKVPGETQTGKLFRMRGKGVKSVRGGAQGDLLCRVVVETPVGLNERQKQLLQELQESFGGPTGEHNSPRSKSFFDGVKKFFDDLTR [R63A]
